B1: non-specific protein-tyrosine kinase (Homo sapiens), A9UEZ6 (parent)
chain: MVDPVGFAEAWKAQFPDSEPPRMELRSVGDIEQELERCKASIRRLEQEVNQERFRMIYLQTLLAKEKKSYDRQRWGFRRAAQAPDGASEPRASASRPQPAPADGADPPPAEEPEARPDGEGSPGKARPGTARRPGAAASGERDDRGPPASVAALRSNFERIRKGHGQPGADAEKPFYVNVEFHHERGLVKVNDKEVSDRISSLGSQAMQMERKKSQHGAGSSVGDASRPPYRGRSSESSCGVDGDYEDAELNPRFLKDNLIDANGGSRPPWPPLEYQPYQSIYVGGMMEGEGKGPLLRSQSTSEQEKRLTWPRRSYSPRSFEDCGGGYTPDCSSNENLTSSEEDFSSGQSSRVSPSPTTYRMFRDKSRSPSQNSQQSFDSSSPPTPQCHKRHRHCPVVVSEATIVGVRKTGQIWPNDGEGAFHGDADGSFGTPPGYGCAADRAEEQRRHQDGLPYIDDSPSSSPHLSSKGRGSRDALVSGALESTKASELDLEKGLEMRKWVLSGILASEETYLSHLEALLLPMKPLKAAATTSQPVLTSQQIETIFFKVPELYEIHKEFYDGLFPRVQQWSHQQRVGDLFQKLASQLGVYRVLGYNHNGEWCEAQTKNGQGWVPSNYITPVNSLEKHSWYHGPVSRNAAEYLLSSGINGSFLVRESESSPGQRSISLRYEGRVYHYRINTASDGKLYVSSESRFNTLAELVHHHSTVADGLITTLHYPAPKRNKPTVYGVSPNYDKWEMERTDITMKHKLGGGQYGEVYEGVWKKYSLTVAVKTLKEDTMEVEEFLKEAAVMKEIKHPNLVQLLGVCTREPPFYIITEFMTYGNLLDYLRECNRQEVNAVVLLYMATQISSAMEYLEKKNFIHRDLAARNCLVGENHLVKVADFGLSRLMTGDTYTAHAGAKFPIKWTAPESLAYNKFSIKSDVWAFGVLLWEIATYGMSPYPGIDLSQVYELLEKDYRMERPEGCPEKVYELMRACWQWNPSDRPSFAEIHQAFETMFQESSISDEVEKELGKQGVRGAVSTLLQAPELPTKTRTSRRAAEHRDTTDVPEMPHSKGQGESDPLDHEPAVSPLLPRKERGPPEGGLNEDERLLPKDKKTNLFSALIKKKKKTAPTPPKRSSSFREMDGQPERRGAGEEEGRDISNGALAFTPLDTADPAKSPKPSNGAGVPNGALRESGGSGFRSPHLWKKSSTLTSSRLATGEEEGGGSSSKRFLRSCSASCVPHGAKDTEWRSVTLPRDLQSTGRQFDSSTFGGHKSEKPALPRKRAGENRSDQVTRGTVTPPPRLVKKNEEAADEVFKDIMESSPGSSPPNLTPKPLRRQVTVAPASGLPHKEEAGKGSALGTPAAAEPVTPTSKAGSGAPGGTSKGPAEESRVRRHKHSSESPGRDKGKLSRLKPAPPPPPAASAGKAGGKPSQSPSQEAAGEAVLGAKTKATSLVDAVNSDAAKPSQPGEGLKKPVLPATPKPQSAKPSGTPISPAPVPSTLPSASSALAGDQPSSTAFIPLISTRVSLRKTRQPPERIASGAITKGVVLDSTEALCLAISRNSEQMASHSAVLEAGKNLYTFCVSYVDSIQQMRNKFAFREAINKLENNLRELQICPATAGSGPAATQDFSKLLSSVKEISDIVQR

The variants in the experiment derive from B1. The following applies: with hs90b_human HSP90AB1, P08238.
Sequence of hs90b_human HSP90AB1, P08238 (P08238 whole entry): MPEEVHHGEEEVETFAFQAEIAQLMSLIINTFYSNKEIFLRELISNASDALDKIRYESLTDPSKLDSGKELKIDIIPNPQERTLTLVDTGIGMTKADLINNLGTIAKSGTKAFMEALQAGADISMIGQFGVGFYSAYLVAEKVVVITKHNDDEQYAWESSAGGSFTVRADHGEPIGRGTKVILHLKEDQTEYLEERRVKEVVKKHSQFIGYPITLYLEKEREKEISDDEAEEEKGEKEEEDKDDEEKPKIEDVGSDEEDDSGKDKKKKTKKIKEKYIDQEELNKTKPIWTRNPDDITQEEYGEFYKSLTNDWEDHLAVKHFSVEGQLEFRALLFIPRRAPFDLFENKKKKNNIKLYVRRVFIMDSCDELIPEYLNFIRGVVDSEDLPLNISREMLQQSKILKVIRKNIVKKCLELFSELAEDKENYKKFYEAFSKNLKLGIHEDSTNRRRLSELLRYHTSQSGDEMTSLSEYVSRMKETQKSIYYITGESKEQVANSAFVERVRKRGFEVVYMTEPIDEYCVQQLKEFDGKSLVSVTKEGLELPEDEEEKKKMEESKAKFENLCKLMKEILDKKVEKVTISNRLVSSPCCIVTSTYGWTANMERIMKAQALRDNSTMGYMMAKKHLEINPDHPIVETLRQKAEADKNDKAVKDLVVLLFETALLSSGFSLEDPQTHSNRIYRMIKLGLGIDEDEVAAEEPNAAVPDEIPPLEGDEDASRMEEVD
With M747I, the “effect of a mutation on the interaction” value is on record as “decreasing interaction”. In the case of M975I it was “increasing interaction”.

The values are drawn from IntAct's records for PubMed 22939624.
